# Entries after “also recorded” stand apart in the source; their conditions may differ.
# B1: ISH224-N3C0: truncated protein, SEQ ID NO: 12: methionine plus amino acids 111-514 of SEQ ID NO: 2 (protein, listed as Photobacterium sp.)
# chain: MNVVAPSLEVYVDHASLPTLQQLMDIIKSEEENPTAQRYIAWGRIVPTDEQMKELNITSFALINNHTPADLVQEIVKQAQTKHRLNVKLSSNTAHSFDNLVPILKELNSFNNVTVTNIDLYDDGSAEYVNLYNWRDTLNKTDNLKIGKDYLEDVINGINEDTSNTGTSSVYNWQKLYPANYHFLRKDYLTLEPSLHELRDYIGDSLKQMQWDGFKKFNSKQQELFLSIVNFDKQKLQNEYNSSNLPNFVFTGTTVWAGNHEREYYAKQQINVINNAINESSPHYLGNSYDLFFKGHPGGGIINTLIMQNYPSMVDIPSKISFEVLMMTDMLPDAVAGIASSLYFTIPAEKIKFIVFTSTETITDRETALRSPLVQVMIKLGIVKEENVLFWADLPNCETGVCIAV
# Legend:
# [1] = Sialyltransferase activity in homogenate of E. coli carrying the JT-ISH-224 gene clones (14C-NeuAc transfer to lactose); format: biochemical; conditions: crude enzyme solution from E. coli TB1
# Protocol: (§1) Sialyltransferase activity was measured as described in J. Biochem., 120, 104-110 (1996) (which is hereby incorporated by reference in its entirety). More specifically, the enzymatic reaction was accomplished by using CMP-NeuAc (70 nmol, containing about 20,000 cpm CMP-NeuAc in which NeuAc was labeled with ^14C; NeuAc represents N-acetylneuraminic acid) as a glycosyl donor substrate, lactose (1.25 μmol) as a glycosyl acceptor substrate, NaCl added to give a concentration of 0.5 M, and the enzyme-containing reaction solution (30 μl) prepared as described above. The enzymatic reaction was carried out at 25° C. for about 10 to 180 minutes. After completion of the reaction, 1.97 ml of 5 mM phosphate buffer (pH 6.8) was added to the reaction solution, which was then applied to a Dowex 1×8 (PO4^3− form, 0.2×2 cm, BIO-RAD) column. The radioactivity was measured for the reaction product, i.e., sialyllactose contained in the eluate (0 to 2 ml) from this column to calculate the enzyme activity. One enzyme unit (1 U) is defined as the amount of enzyme required to transfer 1 micromole of sialic acid per minute.
# An induction experiment of protein expression was performed on the five clones obtained in (3) above (i.e., ISH224-N0C0/pTrc, ISH224-N1C0/pTrc, ISH224-N2C0/pTrc, ISH224-N3C0/pTrc and ISH224-N3.1C0/pTrc). A single colony of E. coli TB1 having the expression vector pTrc99A carrying each clone was inoculated into LB medium (6 ml) containing an antibiotic, ampicillin (final concentration 100 μg/mL), and pre-cultured at 30° C. to about A600=0.5, followed by addition of IPTG (isopropyl-β-D(−)-thiogalactopyranoside, Wako Pure Chemical Industries, Ltd., Japan) at a final concentration of 1 mM. After culturing with shaking at 30° C. for an additional 4 hours, the cells in 4 ml culture solution were collected by centrifugation. These cells were suspended in 200 μl of 20 mM Bis-Tris buffer (pH 7.0) containing 0.336% Triton® X-100 and 0.5 M sodium chloride, and ultrasonically homogenized under ice cooling. The resulting homogenate was defined as a crude enzyme solution, diluted 200-fold with 20 mM cacodylate buffer (pH 5.0) containing 0.336% Triton® X-100, and then provided for activity measurement. The reaction was carried out in duplicate. The reaction conditions are as indicated in the footnotes of Tables 1-1 and 1-2.
# (§2) Reaction Conditions Reaction composition:
# Reaction time: 2 minutes Reaction temperature: 30° C.
# [2] = Sialyltransferase activity of samples after each purification step; format: biochemical; conditions: for Specific activity (U/mg) / Total activity (U): cacodylate pH 5, 5 minutes, 30° C.
# Protocol: as §1
# (§3) The enzyme activity was measured by the method reported in J. Biochem. 120, 104-110 (1996), in the same manner as described in Example 1 under conditions as indicated in the footnote of Table 3-1. For protein quantification, a Coomassie Protein Assay Reagent (PIERCE) was used according to the instruction manual attached thereto. One enzyme unit (1U) was defined as the amount of enzyme required to transfer 1 micromole of sialic acid per minute.
# Reaction time: 5 minutes Reaction temperature: 25° C.
# as §3, with “3-2.” for “3-1.”
# as §2
# Reaction time: 5 minutes Reaction temperature: 30° C.
# [3] = after MONO Q (purified fraction)
molecule,measurement,setting,value
B1,sialyltransferase activity of the expressed clone (in words),[1],smallest clone that retained the activity
same,sialyltransferase activity of the expressed clone (in words),[1]; listed as ISH224-N3C0/pTrc,expressed sialyltransferase; also recorded: retained the activity
same,Specific activity (U/mg),[2]; Crude enzyme solution,2.0 U/mg
same,Total activity (U),[2]; Crude enzyme solution,4911 U
same,Specific activity (U/mg),[2]; after Hydroxyapatite,151 U/mg
same,Total activity (U),[2]; after Hydroxyapatite,997 U
same,Specific activity (U/mg),[2]; [3],264 U/mg
same,Total activity (U),[2]; [3],808 U
same,Specific activity (U/mg),[2]; after Q SEPHAROSE,26.5 U/mg
same,Total activity (U),[2]; after Q SEPHAROSE,3614 U
same,"fold higher specific activity than Pasteurella multocida-derived β-galactoside-α2,3-sialyltransferase (60 U/mg)",[2]; purified fraction,about 4.4 fold
same,"fold higher specific activity than β-galactoside-α2,6-sialyltransferase derived from Photobacterium damselae strain JT0160 (5.5 U/mg)",[2]; purified fraction,about 48 fold

# Reference: patent US8187838B2, “β-Galactoside-α2, 6-sialyltransferase, a gene encoding thereof, and a method for producing thereof” (Japan Tobacco Inc., priority 2006, dated 2012)
